Reference: the Immune Epitope Database (IEDB)
Blank lines part the entries; values can stand above or below the sequence they belong to.

What was measured:
Assay in all cases: IEDB peptide-MHC binding, purified MHC/competitive/radioactivity; filed as Kd, often an IC50 or EC50 that approximates it; ≥ and ≤ were set here for values at or beyond the usual limits of such assays
[1] = molecular target: HLA-A*31:01
[2] = molecular target: HLA-A*11:01
[3] = molecular target: HLA-A*68:01
[4] = molecular target: HLA-A*03:01
[5] = molecular target: HLA-A*33:01
[6] = molecular target: HLA-A*02:03
[7] = molecular target: HLA-A*02:06; settings: source organism: Dengue virus 2 Jamaica/1409/1983
[8] = source organism: SARS coronavirus Tor2
[9] = source organism: Dengue virus 2 Jamaica/1409/1983
[10] = source organism: Dengue virus 1 Brazil/97-11/1997
[11] = source organism: Vaccinia virus WR
[12] = source organism: Dengue virus 4 Philippines/H241/1956
[13] = source organism: Dengue virus 3 Martinique/1243/1999
[14] = source organism: Dengue virus 1 Nauru/West Pac/1974
[15] = source organism: Dengue virus 3 Sri Lanka/1266/2000
[16] = source organism: Mammarenavirus guanaritoense
[17] = source organism: Triticum aestivum

Sequence: STSAFIDTIK
Kd [1, 8]: 8800 nM | Kd [2, 8]: 15.6 nM | Kd [3, 8]: 25.9 nM | Kd [4, 8]: 1090 nM | Kd [5, 8]: ≥ 47100 nM

Sequence: TTFVTPMLR
Kd [1, 9]: 16.5 nM | Kd [2, 9]: 79.2 nM | Kd [3, 9]: 3.77 nM | Kd [4, 9]: 102 nM | Kd [5, 9]: 5.67 nM

Sequence: DISEMGANFR
Kd [3, 10]: 12.9 nM | Kd [5, 10]: 231 nM

Sequence: HATMLDVDLR
Kd ([3]; source organism: Dengue virus 1 Singapore/S275/1990): 90.6 nM

Sequence: HTSVSAKQLR
Kd [1, 11]: 162 nM | Kd [2, 11]: 274 nM | Kd [3, 11]: 16.3 nM | Kd [4, 11]: 2510 nM | Kd [5, 11]: 1140 nM

Sequence: MGANFRAGR
Kd [3, 12]: 46.7 nM

Sequence: EVGAIALDFK
Kd [3, 10]: 15.6 nM

Sequence: RLASAILNA
Kd [6, 12]: 22.8 nM

Sequence: AVVLMGLDK
Kd [2, 13]: 2470 nM

Sequence: TTIITPMMR
Kd [2, 14]: 215 nM | Kd [3, 14]: 4.15 nM | Kd [5, 14]: 52.9 nM

Sequence: IVSSVNMVSR
Kd [1, 15]: 82.7 nM | Kd [3, 15]: 9.22 nM | Kd [5, 15]: 346 nM

Sequence: QLEQPYVFIK
Kd [1, 8]: 11300 nM | Kd [2, 8]: 2990 nM | Kd [3, 8]: 17200 nM | Kd [4, 8]: 6680 nM | Kd [5, 8]: ≥ 70000 nM

Kd ([6]; source organism: Homo sapiens): 1.04 nM
Sequence: YVASYLLAAL

Sequence: GIGTFLHYK
Kd [1, 11]: 65.7 nM | Kd [2, 11]: 0.585 nM | Kd [3, 11]: 24 nM | Kd [4, 11]: 7.8 nM | Kd [5, 11]: 3780 nM

Sequence: ESRDRKWLYY
Kd [1, 11]: ≥ 70000 nM | Kd [2, 11]: ≥ 59000 nM | Kd [3, 11]: 10800 nM | Kd [4, 11]: 11500 nM | Kd [5, 11]: ≥ 70000 nM

Sequence: TMLFTMLRK
Kd [1, 8]: 901 nM | Kd [2, 8]: 20 nM | Kd [3, 8]: 1580 nM | Kd [4, 8]: 7.41 nM | Kd [5, 8]: 13200 nM

Sequence: CFKEASFSKR
Kd [1, 11]: 35.9 nM | Kd [2, 11]: ≥ 43600 nM | Kd [3, 11]: 1640 nM | Kd [4, 11]: 9160 nM | Kd [5, 11]: 61.4 nM

Sequence: LVFNSISAR
Kd [1, 11]: 2.5 nM | Kd [2, 11]: 27 nM | Kd [3, 11]: 143 nM | Kd [4, 11]: 4.22 nM | Kd [5, 11]: 1040 nM

Sequence: MTLMKGASKR
Kd [1, 12]: 78.5 nM | Kd [3, 12]: 94.5 nM | Kd [5, 12]: 68.2 nM

Sequence: VSSVNTTSK
Kd [2, 12]: 1390 nM

Sequence: NTPECPSASR
Kd [3, 13]: 4.83 nM

Sequence: RSCSFKVGHH
Kd [1, 16]: 477 nM | Kd [3, 16]: ≥ 36600 nM | Kd [4, 16]: 11400 nM | Kd [5, 16]: ≥ 70000 nM

Sequence: MLNRVQILMK
Kd [1, 11]: 619 nM | Kd [2, 11]: 130 nM | Kd [3, 11]: 698 nM | Kd [4, 11]: 1.28 nM | Kd [5, 11]: 2780 nM

Sequence: VTNPAVLRK
Kd [2, 10]: 16.5 nM | Kd [4, 10]: 4.28 nM

Sequence: TSPGEIKPK
Kd [1, 11]: ≥ 22500 nM | Kd [2, 11]: 1040 nM | Kd [3, 11]: 4810 nM | Kd [4, 11]: ≥ 61800 nM | Kd [5, 11]: ≥ 77700 nM

Sequence: RMLDTSEKY
Kd [1, 11]: ≥ 66200 nM | Kd [2, 11]: 9870 nM | Kd [3, 11]: ≥ 77700 nM | Kd [4, 11]: 4980 nM | Kd [5, 11]: ≥ 68100 nM

Sequence: ALGGSIAVK
Kd [1, 8]: 12500 nM | Kd [2, 8]: 171 nM | Kd [3, 8]: 11200 nM | Kd [4, 8]: 15.2 nM | Kd [5, 8]: ≥ 77700 nM

Sequence: LTTHCTKLR
Kd [1, 11]: 8510 nM | Kd [2, 11]: ≥ 77900 nM | Kd [3, 11]: 300 nM | Kd [4, 11]: ≥ 78000 nM | Kd [5, 11]: 4530 nM

Sequence: ILKINSVKYY
Kd [1, 11]: 4910 nM | Kd [2, 11]: 13500 nM | Kd [3, 11]: 1420 nM | Kd [4, 11]: 17200 nM | Kd [5, 11]: 11200 nM

Sequence: LTIMDLHPGA
Kd [7]: 105 nM

Sequence: IFTLTVAWR
Kd [1, 15]: 163 nM | Kd [5, 15]: 5.89 nM

Sequence: CTGSFKLEK
Kd [2, 10]: 39.8 nM

Sequence: RSLQTIASKK
Kd [1, 11]: 183 nM | Kd [2, 11]: 22.5 nM | Kd [3, 11]: 1170 nM | Kd [4, 11]: 50.3 nM | Kd [5, 11]: ≥ 70000 nM

Sequence: SAGFSLWIY
Kd [1, 8]: 393 nM | Kd [2, 8]: 116 nM | Kd [3, 8]: 4040 nM | Kd [4, 8]: 572 nM | Kd [5, 8]: 17300 nM

Sequence: VQIDRLITGR
Kd [1, 8]: 43.6 nM | Kd [2, 8]: 3020 nM | Kd [3, 8]: 1030 nM | Kd [4, 8]: 1990 nM | Kd [5, 8]: 912 nM

Sequence: TSDSKSIENK
Kd [1, 11]: 14400 nM | Kd [2, 11]: 534 nM | Kd [3, 11]: 369 nM | Kd [4, 11]: 10400 nM | Kd [5, 11]: ≥ 34200 nM

Kd [1, 17]: 5380 nM | Kd [2, 17]: 845 nM | Kd [3, 17]: ≥ 31300 nM | Kd [4, 17]: 2110 nM | Kd [5, 17]: ≥ 56400 nM
Sequence: QQQQQQQQK
